The source of these data is PMC7367685, “Reconstitution reveals two paths of force transmission through the kinetochore” (eLife, 2020).

Experiment [1] has as its target Cse4-NCP: nucleosome core particle of K. lactis 6XHis-H2A, K. lactis 6XHis-H2B, S. cerevisiae Cse4 and K. lactis 6XHis-H4, wrapped in 601 DNA (Kluyveromyces lactis | S. cerevisiae) (UniProt P36012). As to the kind of experiment: optical trap bead-microtubule attachment assay (self-assembly and microtubule binding); one His6-tagged subcomplex on anti-His5 polystyrene beads (10 nM on 3.5 pM beads), the other subcomplexes free at 10 nM each; the bead was brought to a single growing microtubule with the laser trap, and a bead whose contact did not persist with the laser off counted as a nonbinder; no external force; BRB80 growth buffer with 1 mM GTP, room temperature; in negative controls one subcomplex was omitted.

For experiment [2] the target is unchanged. In words: optical trap force-ramp rupture assay; same beads and free proteins (10 nM each) as the attachment assay; bead on a growing microtubule tip, 1 pN preload, then a ramp of 0.25 pN/s until detachment; median rupture force of the whole chain; not single-molecule conditions; room temperature.
The target of experiment [3] is T1, Ndc80c (Ndc80, Nuf2, Spc24-Flag, Spc25) (S. cerevisiae, UniProt P40460 1-691; P33895 1-451; Q04477 1-213; P40014 1-221).
T1 construct: Ndc80, S. cerevisiae; Nuf2, S. cerevisiae; Spc24, S. cerevisiae; Spc25, S. cerevisiae; also called Ndc80 complex; pJT048 with Ndc80/Nuf2; copies: + + +
T1 sequence (P40460 whole entry, chain 1 of 4): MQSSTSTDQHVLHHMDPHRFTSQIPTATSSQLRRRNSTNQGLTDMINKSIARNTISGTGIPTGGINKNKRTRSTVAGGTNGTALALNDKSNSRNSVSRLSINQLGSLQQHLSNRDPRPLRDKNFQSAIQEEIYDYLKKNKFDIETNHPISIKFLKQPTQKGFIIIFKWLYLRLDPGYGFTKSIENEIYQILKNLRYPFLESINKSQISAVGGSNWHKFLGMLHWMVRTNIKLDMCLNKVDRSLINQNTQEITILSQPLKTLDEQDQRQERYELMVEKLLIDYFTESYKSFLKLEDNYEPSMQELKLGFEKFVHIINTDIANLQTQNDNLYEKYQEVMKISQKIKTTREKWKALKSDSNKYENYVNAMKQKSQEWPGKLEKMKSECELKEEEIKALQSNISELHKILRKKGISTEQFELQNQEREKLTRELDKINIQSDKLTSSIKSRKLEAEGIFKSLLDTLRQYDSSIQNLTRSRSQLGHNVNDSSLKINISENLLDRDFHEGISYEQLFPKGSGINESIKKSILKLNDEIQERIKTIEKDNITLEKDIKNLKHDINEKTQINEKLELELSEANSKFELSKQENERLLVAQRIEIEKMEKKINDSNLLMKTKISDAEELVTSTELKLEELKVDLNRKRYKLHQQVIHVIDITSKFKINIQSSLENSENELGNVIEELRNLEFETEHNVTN
T1 sequence (P33895 whole entry, chain 2 of 4): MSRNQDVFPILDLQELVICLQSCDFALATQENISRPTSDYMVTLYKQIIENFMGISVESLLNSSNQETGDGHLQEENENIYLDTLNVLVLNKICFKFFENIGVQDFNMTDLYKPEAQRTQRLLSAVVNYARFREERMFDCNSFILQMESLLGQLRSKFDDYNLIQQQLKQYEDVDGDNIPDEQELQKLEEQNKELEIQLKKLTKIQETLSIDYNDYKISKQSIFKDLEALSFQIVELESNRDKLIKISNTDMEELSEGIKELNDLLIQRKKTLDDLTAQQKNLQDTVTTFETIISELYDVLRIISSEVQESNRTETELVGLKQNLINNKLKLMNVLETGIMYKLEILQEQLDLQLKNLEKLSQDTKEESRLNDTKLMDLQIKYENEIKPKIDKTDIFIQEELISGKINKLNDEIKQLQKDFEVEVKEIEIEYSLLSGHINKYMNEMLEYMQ
T1 sequence (Q04477 whole entry, chain 3 of 4): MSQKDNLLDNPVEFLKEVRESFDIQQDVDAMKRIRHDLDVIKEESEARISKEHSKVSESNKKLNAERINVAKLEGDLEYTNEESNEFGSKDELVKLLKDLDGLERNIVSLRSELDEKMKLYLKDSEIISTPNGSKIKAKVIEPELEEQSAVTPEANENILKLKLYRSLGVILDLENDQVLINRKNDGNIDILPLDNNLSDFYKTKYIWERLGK
T1 sequence (P40014 whole entry, chain 4 of 4): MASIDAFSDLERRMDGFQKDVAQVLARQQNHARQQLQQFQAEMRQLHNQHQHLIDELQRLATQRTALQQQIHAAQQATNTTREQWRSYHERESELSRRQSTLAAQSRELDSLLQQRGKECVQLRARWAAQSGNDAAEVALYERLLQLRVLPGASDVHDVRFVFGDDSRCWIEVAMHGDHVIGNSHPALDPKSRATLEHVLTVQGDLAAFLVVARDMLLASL
In words: optical trap bead-microtubule attachment assay (self-assembly and microtubule binding); one His6-tagged subcomplex on anti-His5 polystyrene beads (10 nM on 3.5 pM beads), the other subcomplexes free at 10 nM each; the bead was brought to a single growing microtubule with the laser trap, and a bead whose contact did not persist with the laser off counted as a nonbinder; no external force; BRB80 growth buffer with 1 …. The note with it: both partners purified.

Experiment [4] concerns the target T1, Ndc80c (Ndc80, Nuf2, Spc24-Flag, Spc25). As to the kind of experiment: optical trap force-ramp rupture assay; same beads and free proteins (10 nM each) as the attachment assay; bead on a growing microtubule tip, 1 pN preload, then a ramp of 0.25 pN/s until detachment; median rupture force of the whole chain; not single-molecule conditions; room temperature. The note with it: both partners purified.

“Mif2-linker-(27-392)MBP (from UniProt P35201 1-549) (natural protein)” showed a percent of beads that bound microtubules (Cse4-NCP beads with free Mif2, 2D-MIND and Ndc80c) in experiment [1] of 24%. In experiment [2], the median rupture force of Cse4-NCP-based chains with both Mif2 and OA free (with 2D-MIND and Ndc80c) stood at 4 pN; the median rupture force of the whole chain Cse4-NCP/Mif2/2D-MIND/Ndc80c stood at 3.3 pN.

B1: MIND complex, wild type (Nsl1, FLAG-Dsn1, Mtw1, Nnf1) (complex, S. cerevisiae)
chain 1: MSQGQSKKLDVTVEQLRSIYHQFHDILEEKTDLHLPKKEYDDDAVRREVQIQLQEFLLSAMTMASKSLEVVNADTVGKTVKQLIMESQEKYMEPFDLDLNEQVRKMYQEWEDETVKVAQLRQTGPAKINEVYNNSKDEYLAQLDGRIGVLQARMMQQQSADHDDSTDDADDHINWEHIKQDYVASLNELYQTQQDLPKVRYNVEKVKRLMDFLEED
chain 2: MSLEPTQTVSGTPPMLHQRTHKQVYPLRMETIPILESDSKATLQSNEPTQKDEEETEYFENKQSVSNLSPDLKFKRHKNKHIQGFPTLGERLDNLQDIKKAKRVENFNSSAPIADDNHSGDATANATANATANATANVNASAMPAPYMPYYYYYHPMNAPTPAMIPYPGSPMHSIMPNSSLQPFYSQPTAAGGPDMTTPQNISSSQQLLPAPQLFPYGSFHQQQLQQPHYIQRTRERKKSIGSQRGRRLSMLASQANGGSTIISPHKDIPEEDFYTVVGNASFGKNLQIRQLFNWCLMRSLHKLELKAKNQEEEGELEHLTKKSKLESTKAETDYVDPKRLAMVIIKEFVDDLKKDHIAIDWEDEEKYEDEDEEKILDNTENYDDTELRQLFQENDDDDDDDDEVDYSEIQRSRRKFSERRKALPKEPKKLLPNSKNVENTKNLSILTSKVNAIKNEVKEWAVTLDTSRPDLEWQELTSFSSQPLEPLSDTEEPDLAIADVETKLETKVDELRYQSHILNSHSLALNEITNSKVNKLNIETMRKISSETDDDHSQVINPQQLLKGLSLSFSKKLDL
chain 3: MSAPTMRSTSILTEHLGYPPISLVDDIINAVNEIMYKCTAAMEKYLLSKSKIGEEDYGEEIKSGVAKLESLLENSVDKNFDKLELYVLRNVLRIPEEYLDANVFRLENQKDLVIVDENELKKSEEKLREKVNDVELAFKKNEMLLKRVTKVKRLLFTIRGFKQKLNELLKCKDDVQLQKILESLKPIDDTMTLLTDSLRKLYVDSESTSSTEEVEALLQRLKTNGKQNNKDFRTRYIDIRTNNVLRKLGLLGDKEDEKQSAKPDARTQAGDIVSIDIEEPQLDLLDDVL
chain 4: MVNSHGIRYIRLKQVFNRALDQSISKLQSWDKVSSCFPQYVNSKQGAINVANCQRQLTEFWTELCQREFKEIMEERNVEQKLNELDELILEAKERYTDRDQDEVNKGPAIDELSSKELVECHLYSQRMHAIHEIDERLAKVNEMNDQLAQELKDLETQVEVEKNEIGKMYDEYLGSHTDQPANVLLVQSLNDMVLELKENY
notes: Nsl1, S. cerevisiae; Dsn1, S. cerevisiae; Mtw1, S. cerevisiae; Nnf1, S. cerevisiae; also called wild-type MIND; pGH46; copies: + + +
Turning to B1, the binding result in experiment [3] was “binds”.

B2: 2D-MIND complex (FLAG-Nsl1, S240D, S250D-Dsn1, Mtw1, Nnf1) (complex, S. cerevisiae)
chain 1: MSQGQSKKLDVTVEQLRSIYHQFHDILEEKTDLHLPKKEYDDDAVRREVQIQLQEFLLSAMTMASKSLEVVNADTVGKTVKQLIMESQEKYMEPFDLDLNEQVRKMYQEWEDETVKVAQLRQTGPAKINEVYNNSKDEYLAQLDGRIGVLQARMMQQQSADHDDSTDDADDHINWEHIKQDYVASLNELYQTQQDLPKVRYNVEKVKRLMDFLEED
chain 2: MSLEPTQTVSGTPPMLHQRTHKQVYPLRMETIPILESDSKATLQSNEPTQKDEEETEYFENKQSVSNLSPDLKFKRHKNKHIQGFPTLGERLDNLQDIKKAKRVENFNSSAPIADDNHSGDATANATANATANATANVNASAMPAPYMPYYYYYHPMNAPTPAMIPYPGSPMHSIMPNSSLQPFYSQPTAAGGPDMTTPQNISSSQQLLPAPQLFPYGSFHQQQLQQPHYIQRTRERKKDIGSQRGRRLDMLASQANGGSTIISPHKDIPEEDFYTVVGNASFGKNLQIRQLFNWCLMRSLHKLELKAKNQEEEGELEHLTKKSKLESTKAETDYVDPKRLAMVIIKEFVDDLKKDHIAIDWEDEEKYEDEDEEKILDNTENYDDTELRQLFQENDDDDDDDDEVDYSEIQRSRRKFSERRKALPKEPKKLLPNSKNVENTKNLSILTSKVNAIKNEVKEWAVTLDTSRPDLEWQELTSFSSQPLEPLSDTEEPDLAIADVETKLETKVDELRYQSHILNSHSLALNEITNSKVNKLNIETMRKISSETDDDHSQVINPQQLLKGLSLSFSKKLDL
chain 3: MSAPTMRSTSILTEHLGYPPISLVDDIINAVNEIMYKCTAAMEKYLLSKSKIGEEDYGEEIKSGVAKLESLLENSVDKNFDKLELYVLRNVLRIPEEYLDANVFRLENQKDLVIVDENELKKSEEKLREKVNDVELAFKKNEMLLKRVTKVKRLLFTIRGFKQKLNELLKCKDDVQLQKILESLKPIDDTMTLLTDSLRKLYVDSESTSSTEEVEALLQRLKTNGKQNNKDFRTRYIDIRTNNVLRKLGLLGDKEDEKQSAKPDARTQAGDIVSIDIEEPQLDLLDDVL
chain 4: MVNSHGIRYIRLKQVFNRALDQSISKLQSWDKVSSCFPQYVNSKQGAINVANCQRQLTEFWTELCQREFKEIMEERNVEQKLNELDELILEAKERYTDRDQDEVNKGPAIDELSSKELVECHLYSQRMHAIHEIDERLAKVNEMNDQLAQELKDLETQVEVEKNEIGKMYDEYLGSHTDQPANVLLVQSLNDMVLELKENY
notes: Nsl1, S. cerevisiae; Dsn1, S. cerevisiae, with two phosphomimetic substitutions; Mtw1, S. cerevisiae; Nnf1, S. cerevisiae; also called phosphomimetic MIND; pGH62; copies: + + +
B2: in experiment [4], the binding result is recorded as “binds”.
